Experimental data: IntAct's records for PubMed 22483987

B1: Glutamate receptor ionotropic, kainate 2 (Rattus norvegicus (Rat)), P42260 (parent)
chain: MKIISPVLSNLVFSRSIKVLLCLLWIGYSQGTTHVLRFGGIFEYVESGPMGAEELAFRFAVNTINRNRTLLPNTTLTYDTQKINLYDSFEASKKACDQLSLGVAAIFGPSHSSSANAVQSICNALGVPHIQTRWKHQVSDNKDSFYVSLYPDFSSLSRAILDLVQFFKWKTVTVVYDDSTGLIRLQELIKAPSRYNLRLKIRQLPADTKDAKPLLKEMKRGKEFHVIFDCSHEMAAGILKQALAMGMMTEYYHYIFTTLDLFALDVEPYRYSGVNMTGFRILNTENTQVSSIIEKWSMERLQAPPKPDSGLLDGFMTTDAALMYDAVHVVSVAVQQFPQMTVSSLQCNRHKPWRFGTRFMSLIKEAHWEGLTGRITFNKTNGLRTDFDLDVISLKEEGLEKIGTWDPASGLNMTESQKGKPANITDSLSNRSLIVTTILEEPYVLFKKSDKPLYGNDRFEGYCIDLLRELSTILGFTYEIRLVEDGKYGAQDDVNGQWNGMVRELIDHKADLAVAPLAITYVREKVIDFSKPFMTLGISILYRKPNGTNPGVFSFLNPLSPDIWMYILLAYLGVSCVLFVIARFSPYEWYNPHPCNPDSDVVENNFTLLNSFWFGVGALMQQGSELMPKALSTRIVGGIWWFFTLIIISSYTANLAAFLTVERMESPIDSADDLAKQTKIEYGAVEDGATMTFFKKSKISTYDKMWAFMSSRRQSVLVKSNEEGIQRVLTSDYAFLMESTTIEFVTQRNCNLTQIGGLIDSKGYGVGTPMGSPYRDKITIAILQLQEEGKLHMMKEKWWRGNGCPEEESKEASALGVQNIGGIFIVLAAGLVLSVFVAVGEFLYKSKKNAQLEKRSFCSAMVEELRMSLKCQRRLKHKPQAPVIVKTEEVINMHTFNDRRLPGKETMA

Variants of: B1
Settings: with MAP3K11, Q16584
Chain of MAP3K11, Q16584 (Q16584 whole entry, looked up): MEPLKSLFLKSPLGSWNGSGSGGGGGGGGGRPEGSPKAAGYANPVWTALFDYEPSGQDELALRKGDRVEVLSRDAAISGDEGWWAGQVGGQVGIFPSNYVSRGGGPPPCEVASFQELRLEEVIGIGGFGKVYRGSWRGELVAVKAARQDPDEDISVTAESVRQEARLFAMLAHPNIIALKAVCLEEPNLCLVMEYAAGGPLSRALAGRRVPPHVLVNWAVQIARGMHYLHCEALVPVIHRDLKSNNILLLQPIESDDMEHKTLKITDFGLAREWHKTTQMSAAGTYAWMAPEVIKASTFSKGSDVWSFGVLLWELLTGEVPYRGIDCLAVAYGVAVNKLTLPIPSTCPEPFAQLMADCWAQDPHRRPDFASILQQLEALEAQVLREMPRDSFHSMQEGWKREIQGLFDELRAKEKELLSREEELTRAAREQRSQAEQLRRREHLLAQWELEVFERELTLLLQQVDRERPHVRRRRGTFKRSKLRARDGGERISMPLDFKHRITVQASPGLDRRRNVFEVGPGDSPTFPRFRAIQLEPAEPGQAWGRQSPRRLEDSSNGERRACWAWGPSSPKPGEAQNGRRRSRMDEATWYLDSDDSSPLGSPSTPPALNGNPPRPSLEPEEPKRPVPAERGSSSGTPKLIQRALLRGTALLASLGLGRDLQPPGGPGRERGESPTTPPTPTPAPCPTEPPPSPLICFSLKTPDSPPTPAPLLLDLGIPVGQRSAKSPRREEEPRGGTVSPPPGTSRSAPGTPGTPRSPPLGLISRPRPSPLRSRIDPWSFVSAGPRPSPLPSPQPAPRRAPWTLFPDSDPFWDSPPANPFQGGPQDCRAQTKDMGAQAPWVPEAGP

Variant	effect of a mutation on the interaction
K886R	decreasing interaction
